These results are taken from patent US20220267464A1 (Hoffmann-La Roche, published 2022).

B1: P1AE3113 (antibody, IgG1, V domains shown)
VH: QVQLVQSGAEVKKPGASVKVSCKASGFNIKDSYMHWVRQAPGQGLEWMGWIDPENGDTEYAPKFQGRVTMTTDTSISTAYMELSRLRSDDTAVYYCNEGTPTGPYYFDYWGQGTLVTVSS
VL: EIQMTQSPSSLSASVGDRVTITCRASQSISSYMHWYQQKPGKAPKLLIYSTSNLASGVPSRFSGSGSGTDFTLTISSLQPEDFATYYCQQRSSYPLTFGGGTKLEIK
notes: huIgG1 P329G LALA; also called MFE-H24 / MFE-L26
B2: P1AE3092 (antibody, IgG1, V domains shown)
VH: B1 VH with N97A, E98R
VL: EIQMTQSPSSLSASVGDRVTITCRASSSVPYMHWLQQKPGKAPKLLIYSTSSLQSGVPSRFSGSGSGTDFTLTISSVQPEDFATYYCQQRSSYPLTFGGGTKLEIK
notes: huIgG1 P329G LALA; also called MFE-H27 / MFE-L29
B3: P1AE3112 (antibody, IgG1, V domains shown)
VH: B1 VH with F27Y, N28T, I29F
VL: B1 VL
notes: huIgG1 P329G LALA; also called MFE-H25 / MFE-L26
B4: P1AE3108 (antibody, IgG1, V domains shown)
VH: B1 VH with A16S, M70I, T74E, I76T, R85S, D89E
VL: B1 VL
notes: huIgG1 P329G LALA; also called MFE-H29 / MFE-L26
B5: P1AE3104 (antibody, IgG1, V domains shown)
VH: B1 VH with N97A, E98R
VL: B2 VL with L35Y, S52N, Q54A
notes: huIgG1 P329G LALA; also called MFE-H27 / MFE-L27
B6: P1AE3109 (antibody, IgG1, V domains shown)
VH: B1 VH with T72R
VL: B1 VL
notes: huIgG1 P329G LALA; also called MFE-H28 / MFE-L26
B7: P1AE3098 (antibody, IgG1, V domains shown)
VH: B1 VH with N97A, E98R
VL: B2 VL with S52N, Q54A
notes: huIgG1 P329G LALA; also called MFE-H27 / MFE-L28
B8: P1AE3111 (antibody, IgG1, V domains shown)
VH: B1 VH with D57G, E59N, P62Q
VL: B1 VL
notes: huIgG1 P329G LALA; also called MFE-H26 / MFE-L26
B9: P1AE3110 (antibody, IgG1, V domains shown)
VH: B1 VH with N97A, E98R
VL: B1 VL
notes: huIgG1 P329G LALA; also called MFE-H27 / MFE-L26
B10: P1AE3121 (antibody, IgG1, V domains shown)
VH: B1 VH with T72R
VL: B2 VL with E1D, P30S, L35Y, S52N, Q54A, V77L
notes: huIgG1 P329G LALA; also called MFE-H28 / MFE-L24
B11: P1AE0096-001 MFE23 huIgG1 PG LALA (parental) (antibody, V domains shown)
VH: QVKLQQSGAELVRSGTSVKLSCTASGFNIKDSYMHWLRQGPEQGLEWIGWIDPENGDTEYAPKFQGKATFTTDTSSNTAYLQLSSLTSEDTAVYYCNEGTPTGPYYFDYWGQGTTVTVSS
VL: ENVLTQSPAIMSASPGEKVTITCSASSSVSYMHWFQQKPGTSPKLWIYSTSNLASGVPARFSGSGSGTSYSLTISRMEAEDAATYYCQQRSSYPLTFGAGTKLELK
notes: murine variable domains on huIgG1 P329G L234A L235A; also called parental murine MFE23 huIgG1 P329G LALA antibody

Changes are numbered by the printed parent chain. In names and notes the source's numbering stands.

The first assay concerns the target T1, human CEACAM5 (carcinoembryonic antigen, CEA) on cells (human, UniProt P06731 35-685).
T1 construct: endogenous on MKN45 gastric adenocarcinoma cells; full-length cDNA stably transfected in the CHO-K1 clones; also called huCEACAM5; MKN45 cells
T1 sequence: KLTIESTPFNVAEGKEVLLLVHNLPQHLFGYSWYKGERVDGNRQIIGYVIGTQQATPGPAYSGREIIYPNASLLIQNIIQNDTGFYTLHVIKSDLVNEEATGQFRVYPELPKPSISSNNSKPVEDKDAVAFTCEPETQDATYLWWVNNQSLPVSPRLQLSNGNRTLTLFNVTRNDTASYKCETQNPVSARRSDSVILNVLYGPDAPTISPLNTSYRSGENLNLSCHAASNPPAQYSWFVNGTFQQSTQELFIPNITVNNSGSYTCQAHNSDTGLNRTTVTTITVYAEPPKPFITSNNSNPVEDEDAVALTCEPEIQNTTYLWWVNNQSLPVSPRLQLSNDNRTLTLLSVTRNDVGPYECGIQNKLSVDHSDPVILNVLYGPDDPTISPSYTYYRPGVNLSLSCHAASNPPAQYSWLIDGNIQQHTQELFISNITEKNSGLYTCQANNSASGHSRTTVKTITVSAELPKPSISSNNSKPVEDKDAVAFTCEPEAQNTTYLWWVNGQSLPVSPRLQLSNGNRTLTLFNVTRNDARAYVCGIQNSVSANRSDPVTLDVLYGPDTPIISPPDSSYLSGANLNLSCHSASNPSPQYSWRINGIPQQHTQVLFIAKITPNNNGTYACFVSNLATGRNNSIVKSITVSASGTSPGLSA
Kind of assay: flow cytometry, MKN45 cells. More on the design: AUC: unit not given beside the values.
With B1, the AUC stood at 757.
Consider B2, for which the AUC turned out to be 482.
On to B3, for which the AUC came out at 551.
Still for that read-out and setting: in the case of B4 it was 2090; in that of B5, 414.
Still for that read-out and setting: in the case of B6 it was 695.
B7 displayed an AUC of 1190.
In turn, B8 registered an AUC of 578.
Same read-out and setting: in the case of B9 it was 547.
Molecule B10 gave an AUC of 17500 and an EC50 of 17.1 nM.
The corresponding values for B11 are 83500 and 9.36 nM.

The target of the next assay is T1, human CEACAM5 (carcinoembryonic …). The assay can be described thus: flow cytometry, MKN-45 cells, goat F(ab')2 anti-human Fcγ-PE, gMFI.
Consider B1, for which the binding result is reported as “no binding (tested: about 300 nM)”.
The same measure, in the same setting: in the case of B2 it was “no binding (tested: about 300 nM)”.
Still for that read-out and setting: for B3 the value was “no binding (tested: about 300 nM)”.
On to B4, for which the binding result is given as “no binding (tested: about 300 nM)”.
Still for that read-out and setting: for B5 the value was “no binding (tested: about 300 nM)”; for B6, “no binding (tested: about 300 nM)”; for B7, “no binding (tested: about 300 nM)”.
For the molecule B8, the binding result was “no binding (tested: about 300 nM)”.
On the same count and under the same terms, in the case of B9 it was “no binding (tested: about 300 nM)”.
